From patent publication US20200385487A1 (PURDUE PHARMA L P, published 2020) come the findings set out here.

One may read the EC50 (read off the curve) as the midpoint of the concentration-response curve. In general, Kd refers to the free concentration of one partner at which half of the binding sites on the other are occupied at equilibrium, for simple one-to-one binding. By koff is commonly meant the first-order rate constant of dissociation. By kon is commonly meant the second-order rate constant of association.

In test [1] the target is T1, Recombinant Human Coagulation Factor III (tissue factor), R&D Systems (human, UniProt P13726 33-251).
T1 construct: Bought reagent
Description: ELISA: 100 ng/well Recombinant Human Coagulation Factor III coated on plate, antibody titrated 1000 to 0.97 ng/ml, goat anti-human Fc-HRP, TMB, OD at 450 nm. The procedure:
The binding of humanized variants of TF antibody B278, including B278-LC7HC4, LC7HC5, LC7HC6, LC8HC4, LC8HC5, and LC8HC6 variants, to recombinant human coagulation factor III (tissue factor) was assessed by ELISA analysis. The chimeric antibody B278-LC0HC0 was used as a control. In brief, 100 ng/well of Recombinant Human Coagulation Factor III (R&D Systems, UK) was immobilized onto 96 well Maxisorp plates in coating buffer (0.5 mM NaHCO₃ brought to pH 9.5 by the addition of 0.5 mM Na₂CO₃) overnight at 4° C. Coating buffer was removed and the plates were washed once in PBS Tween (PBS-T) (0.05% (v/v) Tween 20). 200 μl per well of 3.0% (w/v) semi skim milk in PBS was added and the plates were agitated for 2 hours at room temperature. Plates were washed three times with PBS-T.
Purified humanized variants of the TF antibody B278 (LC7HC4; LC7HC5; LC7HC6; LC8HC4; LC8HC5; LC8HC6) were serially diluted from 1,000 ng/ml to 0.97 ng/ml in incubation buffer (PBS, 1% (w/v) BSA), and 100 μl added per well.
Following agitation for two hours at room temperature, the plate was washed three times with PBS-T. 100 μl/well of goat anti-human HRP (Fc specific) (Sigma, UK) (1:60,000 PBS) was added and plates incubated for one hour with agitation at room temperature. The plates were washed three times with PBS-T and once in PBS. 100 μl/well of 3,3′,5,5′-Tetramethylbenzidine (TMB) substrate solution was added and incubated at 37° C. for 10 minutes. 50 μl of 1M HCl were added per well and the plates immediately read at 450 nm on a Tecan Sunrise plate reader.
In general terms: An ELISA detects its analyte on a solid surface through an enzyme-linked reagent.

Test [2] concerns the target T2, recombinant soluble human tissue factor (hTF) (human, UniProt P13726 33-251).
T2 construct: also called soluble hTF
Kind of test: SPR (Biacore X), soluble hTF immobilized on CM5 chip, antibody injected; global fit Langmuir 1:1. The procedure: Binding properties of anti-hTF MAbs were evaluated using a Biacore X (Biacore Inc., Uppsala, Sweden). Briefly, a CM5 Biacore biosensor chip was docked into the instrument and activated with 55 μL of 1:1 NHS/EDC reagent (Biacore Inc.) at room temperature. The recombinant soluble hTF and BSA (10 μg/mL in 0.05 M acetate buffer, pH 4.5) were immobilized on the activated chip in flow cells 1 and 2, respectively. Immobilization was carried out at a flow rate of 5 μL/min until a resonance response of 1000-2000 RU was achieved. The chip was then blocked by injection of 55 μL of ethanolamine-HCl, pH 8.5, followed by five washes with 50 mM NaOH, 1 M NaCl.
To measure the binding of anti-hTF MAbs to the soluble hTF immobilized to the chip, 30 μL of anti-hTF MAbs at varying concentrations in Biacore running buffer (HBS-EP, Biacore Inc.) were injected over the sensor surface at a flow rate of 5 μL/min. Following completion of the injection phase, dissociation was monitored in BIAcore running buffer at the same flow rate for 360 sec. The surface was regenerated between injections using 30 μL of 50 mM NaOH-1 M NaCl. Individual sensorgrams were analyzed using […] software. Results for the Biacore/SPR binding analyses are shown in FIGS. 11A and 11B and Table 7.
In general terms: Surface plasmon resonance follows binding to a sensor surface in real time, without labels.

B1: chimeric antibody B278-LC0HC0 (antibody, V domains shown)
VH: EVQLQQSGAELMKPGASVKISCKATGYTFSSYWIEWVKQRPGHGLEWIGEILPGSASTKYNEKFKGKATFTADTSSNTAYMQLSSLTSEDSAVYYCARDYYYGSSYGFAYWGQGTLVTVSS
VL: QAVVTQESALTTSPGETVTLTCRSSTGAVTTSNYANWVQEKPDHLFTGLIGGTNNRGPGVPARFSGSLIGDKAALTITGAQTEDEAVYFCALWYSNHWVFGGGTKLTVLG
notes: also called Ab LC0HC0 (chimeric B278); chimeric B278 control antibody
B1: the “EC50 (read off the curve)” value in test [1] was approximately 0.04 µg/mL. Further, in test [2], the Kd stood at 24.9 nM, the off-rate constant (koff) worked out at 0.0011 s⁻¹ and the on-rate constant (kon) is 43000 M⁻¹ s⁻¹.

B2: humanized tissue factor antibody B278-LC7HC6 variant (antibody, human IgG1, lambda, V domains shown)
VH: EVQLQQSGAEVMKPGASVKISCKASGYTFSSYWIEWVKQAPGQGLEWIGEILPGSASTKYNEKFKGRVTFTADTSTNTAYMELSSLRSEDTAVYYCARDYYYGSSYGFAYWGQGTLVTVSS
VL: QAVVTQEPSLTVSPGGTVTLTCRSSTGAVTTSNYANWVQQKPGQLPKGLISGTNNRGPWTTARFSGSILGDKAVLTLWGAHTEDEAVYYCALWYSNHWVFGGGTKLTVLG
notes: Full-length humanized antibody; Expressed transiently in CHO cells; also called Ab LC7HC6; PS-F09-2016-012
For the molecule B2, in test [2], the Kd was 25.3 nM, the koff worked out at 0.0007 s⁻¹ and the kon is 28000 M⁻¹ s⁻¹.

B3: LC7HC5 (antibody, V domains shown)
VH: QVQLQESGAEVKKPGASVKVSCKASGYTFSSYWIEWVRQAPGQGLEWMGEILPGSASTKYNEKFKGRVTMTADTSTNTVYMELSSLRSEDTAVYYCARDYYYGSSYGFAYWGQGTLVTVSS
VL: QAVVTQEPSLTVSPGGTVTLTCRSSTGAVTTSNYANWVQQKPGQLPKGLISGTNNRGPWTTARFSGSILGDKAVLTLWGAHTEDEAVYYCALWYSNHWVFGGGTKLTVLG
notes: Humanized B278 variant, expressed transiently in CHO cells; also called B278-LC7HC5; B278-LC7HC5 variant
B3: the “EC50 (read off the curve)” value in test [1] is approximately 0.05 µg/mL.

B4: LC8HC5 (antibody, V domains shown)
VH: QVQLQESGAEVKKPGASVKVSCKASGYTFSSYWIEWVRQAPGQGLEWMGEILPGSASTKYNEKFKGRVTMTADTSTNTVYMELSSLRSEDTAVYYCARDYYYGSSYGFAYWGQGTLVTVSS
VL: QSALIQPPSVSGSPGQSVTISCRSSTGAVTTSNYANWVQQHPGTVPKPMIYGTNNRGPGVPDRFSGSKSGNTASMTISGLQAEDEADYFCALWYSNHWVFGGGTKLTVLG
notes: Humanized B278 variant, expressed transiently in CHO cells; also called B278-LC8HC5; B278-LC8HC5 variant
For the molecule B4, the binding result in test [1] is on record as “no binding (tested: 1000 ng/ml)”.

B5: LC8HC4 (antibody, V domains shown)
VH: QVQLQESGAEVKKPGASVKVSCKASGYTFSSYWIEWVRQAPGQGLEWMGEILPGSASTKYNEKFKGRVTMTRDTSTSTVYMELSSLRSEDTAVYYCARDYYYGSSYGFAYWGQGTLVTVSS
VL: QSALIQPPSVSGSPGQSVTISCRSSTGAVTTSNYANWVQQHPGTVPKPMIYGTNNRGPGVPDRFSGSKSGNTASMTISGLQAEDEADYFCALWYSNHWVFGGGTKLTVLG
notes: Humanized B278 variant, expressed transiently in CHO cells; also called B278-LC8HC4; B278-LC8HC4 variant
Consider B5, for which the binding result in test [1] is reported as “no binding (tested: 1000 ng/ml)”.

B6: LC7HC4 (antibody, V domains shown)
VH: QVQLQESGAEVKKPGASVKVSCKASGYTFSSYWIEWVRQAPGQGLEWMGEILPGSASTKYNEKFKGRVTMTRDTSTSTVYMELSSLRSEDTAVYYCARDYYYGSSYGFAYWGQGTLVTVSS
VL: QAVVTQEPSLTVSPGGTVTLTCRSSTGAVTTSNYANWVQQKPGQLPKGLISGTNNRGPWTTARFSGSILGDKAVLTLWGAHTEDEAVYYCALWYSNHWVFGGGTKLTVLG
notes: Humanized B278 variant, expressed transiently in CHO cells; also called B278-LC7HC4; B278-LC7HC4 variant
On to B6, for which, in test [1], the “EC50 (read off the curve)” value was approximately 0.06 µg/mL.

B7: LC8HC6 (antibody, V domains shown)
VH: EVQLQQSGAEVMKPGASVKISCKASGYTFSSYWIEWVKQAPGQGLEWIGEILPGSASTKYNEKFKGRVTFTADTSTNTAYMELSSLRSEDTAVYYCARDYYYGSSYGFAYWGQGTLVTVSS
VL: QSALIQPPSVSGSPGQSVTISCRSSTGAVTTSNYANWVQQHPGTVPKPMIYGTNNRGPGVPDRFSGSKSGNTASMTISGLQAEDEADYFCALWYSNHWVFGGGTKLTVLG
notes: Humanized B278 variant, expressed transiently in CHO cells; also called B278-LC8HC6; B278-LC8HC6 variant
In the case of B7, the binding result in test [1] was “no binding (tested: 1000 ng/ml)”.
